Patent US20190359687A1 (Bayer, published 2019)
Where a chain is given by its changes, count along the chain named. Each block holds one binder with its values, some of them ahead of it.

Columns and labels:
[1] = biological target: T1, purified human glycophorin A protein (Sigma, cat # G5017) (human, UniProt P02724 20-150); assay: ELISA, hGPA
T1 construct: mature; also called Sigma hGPA; Sigma GPA
T1 sequence (looked up): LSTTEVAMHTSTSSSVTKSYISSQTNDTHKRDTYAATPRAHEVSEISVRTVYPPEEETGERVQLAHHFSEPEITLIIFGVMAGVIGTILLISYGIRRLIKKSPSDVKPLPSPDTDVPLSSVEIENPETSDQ
Procedure: (§1) Hybridomas were generated from the spleen cells of these mice and these hybriomas were screened first by fluorescence activated cell sorting (FACS) against isolated human and monkey (Cynomolgus monkey and Rhesus monkey) red blood cells (RBC) and then by ELISA against purified human glycophorin A protein (GPA). Isolated RBC were prepared from whole blood from normal human, cynomolgus monkey, and beagle dog, were anticoagulant with sodium heparin (Bioreclamation). 2-3 mL of whole blood was loaded gently on the top of 3 mL Ficoll Plus (Sigma Aldrich) then centrifuged at 500 g for 20 min at room temperature (RT). The RBC pellets were washed 3 times with 10 mL of PBS, and centrifuge 400 g for 10 min at RT. RBC pellets were re-suspended in PBS at the same total volume as the original blood volume to achieve the same RBC cell density as in whole blood and stored at 4° C. Purified human glycophorin A protein was obtained from Sigma Aldrich and coated on ELISA plates at 2 ug/ml. Binding of antibodies to human GPA was detected using appropriate secondary antibodies using methods well known in the art.

[2] = biological target: T2, Cynomolgus monkey glycophorin A on Cynomolgus monkey red blood cells (Cynomolgus monkey); assay: FACS, Cyno RBC
T2 construct: whole, on cells; also called Cyno RBC; Cyno GPA
Procedure: as §1

dog red blood cells [3] = biological target: T3, dog red blood cells (dog); assay: FACS, dog RBC
T3 construct: also called dog RBC
Procedure: as §1

[4] = biological target: T4, human glycophorin A in the red blood cell membrane (human, UniProt P02724 20-150); assay: FACS, hu RBC
T4 construct: whole, on cells; used for intact RBC, isolated RBC membranes and transfected cells; the assay field tells which; also called GPA; hGPA
T4 sequence (looked up): T1 sequence (looked up)
Procedure: as §1

[5] = biological target: T5, human glycophorin A on human red blood cells (human, UniProt P02724 20-150); assay: partition to human RBC, vWF deficient plasma, 60 min
T5 construct: whole, on cells; also called human GPA; huGPA
T5 sequence (looked up): T1 sequence (looked up)

[6] = biological target: T6, Cynomolgus monkey glycophorin A on Cynomolgus monkey red blood cells (Cynomolgus monkey); assay: partition to Cyno RBC, human HemA plasma, 5 min;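 further: FVIII fusion spiked at 1 IU/mL into RBC suspension at whole-blood density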
T6 construct: whole, on cells; also called Cyno GPA; Cyno RBC

[7] = biological target: T5, human glycophorin A on human red blood …; assay: partition to human RBC, vWF deficient plasma, 1 min
[8] = biological target: T6, Cynomolgus monkey glycophorin A on …; assay: partition to Cyno RBC, human HemA plasma, 60 min;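 further: FVIII fusion spiked at 1 IU/mL into RBC suspension at whole-blood density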
Procedure: (§2) To evaluate partition to cynomolgus monkey or human red blood cells, whole blood was draw from Cynomolgus monkey or normal human volunteers in to anticoagulant with 4% sodium citrate (Sigma, St Louis, Mo.). The red blood cells were purified by layering the whole blood on to ficoll followed by low speed centrifugation. The supernatant containing plasma, platelets and white blood cells was discarded and the red blood cell pellet was resuspended in 10 pellet volumes of PBS (50 mM Phosphate buffer, pH7.4, 150 mM NaCl). The red blood cells were then pelleted by slow speed centrifugation and the red blood cells re-suspended in 10 volumes of PBS. This washing step was repeated 4 more times and the red blood cells finally resuspended in a volume of plasma from Hemophilia patients with less than 1% of normal levels of FVIII (GeorgeKing Bio-Medical, Overland Park, Kans.) to generate a total volume equal to the initial blood volume such that the RBC density was equal to that of normal whole blood. BDD and RBC targeted FVIII molecules were then spiked into RBC suspension in HemA plasma at 1 IU/mL, and incubated at room temperature for 2-3 hours with gentle rotation. […] An additional control was performed in which BDD or RBC targeted FVIII molecules were added at 11U/ml into the same human hemophilia A plasma and incubated for 5 minutes and 180 mins. These samples were used to determine the input FVIII activity in the presence of plasma which was used to calculate the percentage of the molecule that was bound to RBC. All plasma samples were then assayed together for FVIII activity using the Coatest SP assay (DiaPharma, Columbus, Ohio). The assay was performed following the manufacturer's instructions in a 96-well plate format. […] The plate was incubated at 37° C. for 10 minutes with shaking between each reagent addition.

[9] = biological target: T5, human glycophorin A on human red blood …; assay: partition to human RBC, vWF deficient plasma, 5 min
[10] = biological target: T7, glycophorin A peptide GP5 (human, biotin at the N-terminus); assay: Octet, GP5 peptide on the probe, fusion protein in solution, 1:1 fit
T7 construct: Residues 42 to 61 of the human glycophorin A extracellular domain
T7 peptide: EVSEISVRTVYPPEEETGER

[11] = biological target: T5, human glycophorin A on human red blood …; assay: partition to human RBC, vWF deficient plasma, 15 min
[12] = biological target: T6, Cynomolgus monkey glycophorin A on …; assay: partition to Cyno RBC, human HemA plasma, 120 min;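 further: FVIII fusion spiked at 1 IU/mL into RBC suspension at whole-blood density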
[13] = biological target: T5, human glycophorin A on human red blood …; assay: partition to human RBC, vWF deficient plasma, 30 min
[14] = biological target: T6, Cynomolgus monkey glycophorin A on …; assay: partition to Cyno RBC, human HemA plasma, 15 min;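 further: FVIII fusion spiked at 1 IU/mL into RBC suspension at whole-blood density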
[15] = biological target: T6, Cynomolgus monkey glycophorin A on …; assay: partition to Cyno RBC, human HemA plasma, 30 min;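 further: FVIII fusion spiked at 1 IU/mL into RBC suspension at whole-blood density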
Procedure: as §2

[16] = biological target: T6, Cynomolgus monkey glycophorin A on …; assay: partition to Cyno RBC, human HemA plasma, 1 min;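 further: FVIII fusion spiked at 1 IU/mL into RBC suspension at whole-blood density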
Procedure: as §2

[17] = biological target: T5, human glycophorin A on human red blood …; assay: partition to human RBC, vWF deficient plasma, 120 min
[18] = biological target: T2, Cynomolgus monkey glycophorin A on …; assay: FACS, Cyno #1 RBC
[19] = biological target: T8, Rhesus monkey glycophorin A on Rhesus monkey red blood cells (Rhesus monkey, UniProt A0A1D5Q349 20-150); assay: FACS, Rhesus RBC
T8 construct: whole, on cells; also called Rhesus RBC; monkey GPA
T8 sequence: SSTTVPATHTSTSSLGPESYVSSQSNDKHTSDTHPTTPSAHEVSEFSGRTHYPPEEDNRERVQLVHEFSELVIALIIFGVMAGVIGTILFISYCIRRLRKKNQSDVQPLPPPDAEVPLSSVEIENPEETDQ

[20] = biological target: T2, Cynomolgus monkey glycophorin A on …; assay: FACS, Cyno #3 RBC
[21] = biological target: T2, Cynomolgus monkey glycophorin A on …; assay: FACS, Cyno #2 RBC
[22] = biological target: T4, human glycophorin A in the red blood …; assay: FACS, Human RBC
dog red blood cells [23] = biological target: T3, dog red blood cells; assay: FACS, Dog RBC

B1: 12C6A6/A5 (antibody, V domains shown)
VH: QVQLQQSGAELARPGASVKMSCKASGYTFTRYSMHWVKQRPGQGLEWIGYINPGTYSTNYNQKFKDRATLTADKSSSTAYMQLNSLTSEDSAVYYCQTGTRDYWGQGTTLTVSS
VL: QIVLTQSPPIMSASPGEKVTITCSAASSVSYIYWFQQKPGTSPKLWIYSTSSLPSGVPTRFSGSGSGTSYSLTISRMEAEDAATYYCHQRSSYPFTFGSGTKLEIR
notes: as m8
EC50 [1]: 266 pM | FACS signal [2]: 7 relative flourescence units | FACS signal (dog red blood cells [3]): 0.96 relative flourescence units | FACS signal [4]: 2840 relative flourescence units

B3: 1E4A2/F8 (antibody, V domains shown)
VH: B1 VH with S57Y
VL: B1 VL
notes: as m8
EC50 [1]: 221 pM | FACS signal [2]: 272 relative flourescence units | FACS signal (dog red blood cells [3]): 1 relative flourescence units | FACS signal [4]: 2560 relative flourescence units

B7: 1E4 scFv-Fc (Fc fusion)
scFv: QVQLQQSGAELARPGASVKMSCKASGYTFTRYSMHWVKQRPGQGLEWIGYINPGTYYTNYNQKFKDRATLTADKSSSTAYMQLNSLTSEDSAVYYCQTGTRDYWGQGTTLTVSSGGGGSGGGGSGGGGSQIVLTQSPPIMSASPGEKVTITCSAASSVSYIYWFQQKPGTSPKLWIYSTSSLPSGVPTRFSGSGSGTSYSLTISRMEAEDAATYYCHQRSSYPFTFGSGTKLEIRGGGGAGGGGCKPCICTVPEVSSVFIFPPKPKDVLTITLTPKVTCVVVDISKDDPEVQFSWFVDDVEVHTAQTQPREEQFNSTFRSVSELPIMHQDWLNGKEFKCRVNSAAFPAPIEKTISKTKGRPKAPQVYTIPPPKEQMAKDKVSLTCMITDFFPEDITVEWQWNGQPAENYKNTQPIMDTDGSYFVYSKLNVQKSNWEAGNTFTCSVLHEGLHNHHTEKSLSHSPGK
notes: as m18
FACS signal [18]: 1 Flourescent units | FACS signal [20]: 487 Flourescent units | FACS signal [21]: 453 Flourescent units | FACS signal [22]: 1720 Flourescent units | FACS signal (dog red blood cells [23]): 1 Flourescent units

B8: 1H5B4/H12 (antibody, V domains shown)
VH: QVQLQQSGAELARPGASVKMSCKASGYTFTSYSIHWIKQRPGQSLEWIGYINPNSDYANYNQKFKDKATLTTDKSSTTAYMQLSSLTTDDSAVYYCQTGTRDYWGQGTTLTVSS
VL: DIVMTQSPSSLSVSAGEKVTMSCKSSQSLLNSGNQKNYLAWYQQKPGQPPKLLIYGASTRESGVPDRFTGSGSGTDFTLTISSVQAEDLAVYYCQNDHSYPYTFGGGTKLEIK
notes: as m8
EC50 [1]: 403 pM | FACS signal [2]: 0.93 relative flourescence units | FACS signal [4]: 1.05 relative flourescence units

Next, values leading:

EC50 [1]: 159 pM | FACS signal [2]: 284 relative flourescence units | FACS signal (dog red blood cells [3]): 1.05 relative flourescence units | FACS signal [4]: 2860 relative flourescence units
B2: 8F9E9/F11 (antibody, V domains shown)
VH: B8 VH
VL: B1 VL with Q1H, P9A, T22I, A26R, I32M, S49A, T59A, F95Y, R106K
notes: as m8

EC50 [1]: 192 pM | FACS signal [2]: 280 relative flourescence units | FACS signal (dog red blood cells [3]): 1.04 relative flourescence units | FACS signal [4]: 2860 relative flourescence units
B4: 10F1B10/F3 (antibody, V domains shown)
VH: B1 VH with Q5L, K19R, M20I, S33A, Y56F
VL: B1 VL
notes: as m8

percentage bound to human RBC [5]: 77.8% | % bound to Cyno RBC [6]: 48.2% | percentage bound to human RBC [7]: 24.6% | % bound to Cyno RBC [8]: 72.2% | percentage bound to human RBC [9]: 48.5% | Kd [10]: 2400 pM | koff [10]: 0.00305 s⁻¹ | kon [10]: 1.27e+06 M⁻¹ s⁻¹ | percentage bound to human RBC [11]: 64.8% | % bound to Cyno RBC [12]: 73.8% | percentage bound to human RBC [13]: 72.5% | % bound to Cyno RBC [14]: 62.1% | % bound to Cyno RBC [15]: 67.5% | % bound to Cyno RBC [16]: 28.1% | percentage bound to human RBC [17]: 80.3%
B5: TPP-9049 FVIII-scFv fusion protein (other)
chain: ATRRYYLGAVELSWDYMQSDLGELPVDARFPPRVPKSFPFNTSVVYKKTLFVEFTDHLFNIAKPRPPWMGLLGPTIQAEVYDTVVITLKNMASHPVSLHAVGVSYWKASEGAEYDDQTSQREKEDDKVFPGGSHTYVWQVLKENGPMASDPLCLTYSYLSHVDLVKDLNSGLIGALLVCREGSLAKEKTQTLHKFILLFAVFDEGKSWHSETKNSLMQDRDAASARAWPKMHTVNGYVNRSLPGLIGCHRKSVYWHVIGMGTTPEVHSIFLEGHTFLVRNHRQASLEISPITFLTAQTLLMDLGQFLLFCHISSHQHDGMEAYVKVDSCPEEPQLRMKNNEEAEDYDDDLTDSEMDVVRFDDDNSPSFIQIRSVAKKHPKTWVHYIAAEEEDWDYAPLVLAPDDRSYKSQYLNNGPQRIGRKYKKVRFMAYTDETFKTREAIQHESGILGPLLYGEVGDTLLIIFKNQASRPYNIYPHGITDVRPLYSRRLPKGVKHLKDFPILPGEIFKYKWTVTVEDGPTKSDPRCLTRYYSSFVNMERDLASGLIGPLLICYKESVDQRGNQIMSDKRNVILFSVFDENRSWYLTENIQRFLPNPAGVQLEDPEFQASNIMHSINGYVFDSLQLSVCLHEVAYWYILSIGAQTDFLSVFFSGYTFKHKMVYEDTLTLFPFSGETVFMSMENPGLWILGCHNSDFRNRGMTALLKVSSCDKNTGDYYEDSYEDISAYLLSKNNAIEPRSFSQNPPVLKRHQREITRTTLQSDQEEIDYDDTISVEMKKEDFDIYDEDENQSPRSFQKKTRHYFIAAVERLWDYGMSSSPHVLRNRAQSGSVPQFKKVVFQEFTDGSFTQPLYRGELNEHLGLLGPYIRAEVEDNIMVTFRNQASRPYSFYSSLISYEEDQRQGAEPRKNFVKPNETKTYFWKVQHHMAPTKDEFDCKAWAYFSDVDLEKDVHSGLIGPLLVCHTNTLNPAHGRQVTVQEFALFFTIFDETKSWYFTENMERNCRAPCNIQMEDPTFKENYRFHAINGYIMDTLPGLVMAQDQRIRWYLLSMGSNENIHSIHFSGHVFTVRKKEEYKMALYNLYPGVFETVEMLPSKAGIWRVECLIGEHLHAGMSTLFLVYSNKCQTPLGMASGHIRDFQITASGQYGQWAPKLARLHYSGSINAWSTKEPFSWIKVDLLAPMIIHGIKTQGARQKFSSLYISQFIIMYSLDGKKWQTYRGNSTGTLMVFFGNVDSSGIKHNIFNPPIIARYIRLHPTHYSIRSTLRMELMGCDLNSCSMPLGMESKAISDAQITASSYFTNMFATWSPSKARLHLQGRSNAWRPQVNNPKEWLQVDFQKTMKVTGVTTQGVKSLLTSMYVKEFLISSSQDGHQWTLFFQNGKVKVFQGNQDSFTPVVNSLDPPLLTRYLRIHPQSWVHQIALRMEVLGCEAQDLYGGGSGGGGSGLVPRGSGGGSGGGGSGDIQLTQSPSFLSASVGDRVTITCRASSSVRYIYWFQQKPGKAPKLLIYATSFRQSGVPSRFSGSGSGTEYTLTISSLQPEDFATYYCHQRNSFPYTFGQGTKLEIKGGGGSGGGGSGGGGSGGGGSEVQLVQSGAEVKKPGASVKVSCKASGYTFTTYAIHWVRQAPGQGLEWMGYINPSSGYTRYNPKFKGRVTMTRDKSTSTAYMELRSLRSDDTAVYYCWTGTRDYWGQGTTVTVSS
notes: The entry is the mature protein; mostly a 2 chain molecule; also called BDD-C scFv; PPB 6733

FACS signal [18]: 2 Flourescent units | FACS signal [19]: 1450 Flourescent units | FACS signal [20]: 602 Flourescent units | FACS signal [21]: 876 Flourescent units | FACS signal [22]: 2040 Flourescent units | FACS signal (dog red blood cells [23]): 1 Flourescent units
B6: 6C12 scFv-Fc (Fc fusion)
scFv: RVQLQQSGAELARPGASVKMSCKASGYTFTTYTIHWVKQKTGQGLEWIGYINPSSDYTRYNPKFKDKATLTTDKSSSTAYMKLNSLASDDSAVYYCQTGTRDYWGQGTTLTVSSGGGGSGGGGSGGGGSQIVLTQSPPIMSASPGEKVTMTCSAASSVSYIYWFQQKPGTSPKLWIYSTSTLPSGVPTRFSGSGSGTSYSLTISRMEAEDAATYYCHQRNSFPFTFGSGTKLEIRGGGGAGGGGCKPCICTVPEVSSVFIFPPKPKDVLTITLTPKVTCVVVDISKDDPEVQFSWFVDDVEVHTAQTQPREEQFNSTFRSVSELPIMHQDWLNGKEFKCRVNSAAFPAPIEKTISKTKGRPKAPQVYTIPPPKEQMAKDKVSLTCMITDFFPEDITVEWQWNGQPAENYKNTQPIMDTDGSYFVYSKLNVQKSNWEAGNTFTCSVLHEGLHNHHTEKSLSHSPGK
notes: scFv fused to a mouse Fc fragment; printed order VH-linker-VL-Fc
